The target of this assay is Human CD64 (FcγRI), His-tagged (human) (UniProt P12314). The assay can be described thus: SPR single cycle kinetics, 1:1 model, His-CD64 captured, antibody as analyte.

The term Kd denotes the concentration at which binding is half-saturated. A word on the koff: it is the first-order rate constant of dissociation. Read a high koff as fast dissociation. By kon is commonly meant a measure of how fast the partners come together.

Chain of Human CD64 (FcγRI), His-tagged (human) (P12314 16-288 limits assumed): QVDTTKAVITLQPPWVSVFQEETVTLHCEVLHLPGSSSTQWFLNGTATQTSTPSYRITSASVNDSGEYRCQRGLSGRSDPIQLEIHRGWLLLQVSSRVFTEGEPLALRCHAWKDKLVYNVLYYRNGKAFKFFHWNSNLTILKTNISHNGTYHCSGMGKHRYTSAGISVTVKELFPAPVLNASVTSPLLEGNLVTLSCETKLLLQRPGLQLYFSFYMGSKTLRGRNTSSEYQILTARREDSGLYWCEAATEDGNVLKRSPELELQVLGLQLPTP

For Irrelevant IgG1 (antibody), the Kd is 2.61 nM, the koff stood at 0.00083 s⁻¹ and the kon was 319000 M⁻¹ s⁻¹.

Turning to Irrelevant IgG4 (antibody), the dissociation constant (Kd) is 5.97 nM, the koff is 0.00249 s⁻¹ and the kon was found to be 417000 M⁻¹ s⁻¹.

(Values after patent US20230059181A1.)
